{"source": "paper PMC9628938", "about": "“DED Interaction of FADD and Caspase-8 in the Induction of Apoptotic Cell Death” (Journal of Microbiology and Biotechnology, 2022)", "binders": {"B1": {"name": "FADD DED (residues 1-83), His-tagged (domain or fragment, human, UniProt Q13158 1-83, looked up)", "chain": "MDPFLVLLHSVSSSLSSSELTELKFLCLGRVGKRKLERVQSGLDLFSMLLEQNDLEPGHTELLRELLASLRRHDLLRRVDDFE", "notes": "human FADD (MORT1), death-effector domain construct, residues 1-83; Cloned in pET-28a; also called wild-type FADD DED; Fas-associated death domain; source: E. coli BL21(DE3), purified (Ni-NTA, gel filtration); also co-expressed with caspase-8 DEDs in E. coli and co-purified"}}, "assay_in_all_cases": "SPR; Biacore T100; FADD DED amine-coupled to CM5 chip; caspase-8 DEDs 250 to 5,000 nM as analyte in HBS-EP+ (10 mM HEPES pH 7.4, 150 mM NaCl, 3 mM EDTA, 0.05% P20), 25°C; apparent KD", "conditions_in_all_cases": "both partners purified", "key": {"[1]": {"molecular_target": "T1, caspase-8 DEDs (residues 1-188), His-tagged, wild type (human, UniProt Q14790 1-188)", "T1 construct": "human caspase-8, tandem death-effector domains DED1 and DED2, residues 1-188; Cloned in pET-28a; also called His-caspase-8 DEDs (1-188); wild-type caspase-8 DEDs; source: E. coli BL21(DE3), purified (Ni-NTA, gel filtration); also co-expressed with FADD DED in E. coli and co-purified", "T1 sequence (Q14790 1-188)": "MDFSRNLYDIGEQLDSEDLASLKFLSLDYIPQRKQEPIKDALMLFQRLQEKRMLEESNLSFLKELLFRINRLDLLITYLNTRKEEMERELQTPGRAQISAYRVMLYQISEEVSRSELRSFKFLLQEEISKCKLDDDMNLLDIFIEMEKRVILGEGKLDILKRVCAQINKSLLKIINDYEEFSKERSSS"}, "[2]": {"molecular_target": "T2, caspase-8 DEDs (residues 1-188) I128A, His-tagged (human, UniProt Q14790 1-188, I128A)", "T2 construct": "human caspase-8, tandem death-effector domains, residues 1-188; also called Caspase-8 DEDs (I128A); source: E. coli BL21(DE3), purified (Ni-NTA, gel filtration)", "T2 sequence (Q14790 1-188 I128A)": "as the sequence (Q14790 1-188) above, with I128A counted along it"}, "[3]": {"molecular_target": "T3, caspase-8 DEDs (residues 1-188) R5E/I128A, His-tagged (human, UniProt Q14790 1-188, R5E | I128A)", "T3 construct": "human caspase-8, tandem death-effector domains, residues 1-188; also called Caspase-8 DEDs (R5E/I128A); source: E. coli BL21(DE3), purified (Ni-NTA, gel filtration)", "T3 sequence (Q14790 1-188 R5E/I128A)": "as the sequence (Q14790 1-188) above, with R5E, I128A counted along it"}}}
{"binder": "B1", "values": [{"measurement": "Kd", "setting": "[1]", "value": 38, "unit": "nM"}, {"measurement": "Kd", "setting": "[2]", "value": 61, "unit": "nM"}, {"measurement": "Kd", "setting": "[3]", "value": 236, "unit": "nM"}]}
